Test results published in patent publication US20130046081A1 (SHANGHAI BIOMABS PHARMACEUTICALS, published 2013).

Molecular target: T1, Recombinant Human VEGF165 Protein (human, UniProt P15692-4 27-191)
T1 construct: Bought protein (R&D)
Test: SPR (Biacore T100), VEGF165 amine-coupled to the chip, antibody in solution
Description: Affinity constant of VEGF antibody was detected using Biacore T100 system (Biacore AB, Uppsala, Sweden). VEGF165 (R&D) was covalently linked to CMS biological sensor chips (Biacore) by amino-coupling. […] After each examination, they were washed with 5 μl of 50 mM hydrochloric acid aqueous solution at a flow rate of 3 μl/min so as to wash away the residual antibodies from the immobilized ligands. The binding curves were subjected to nonlinear regression analysis using BIAevalution software (T100 evalution version 2.0, Biacore).

T1 sequence (P15692 other isoform, or with tags, fused parts or gaps limits assumed): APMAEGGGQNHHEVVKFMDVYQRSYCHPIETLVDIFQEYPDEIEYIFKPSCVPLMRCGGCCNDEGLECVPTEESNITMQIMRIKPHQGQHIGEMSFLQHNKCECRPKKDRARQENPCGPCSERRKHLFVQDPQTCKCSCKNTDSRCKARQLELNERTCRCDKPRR

Kd: 0.86 nM
koff: 7.1e-05 s⁻¹
kon: 82400 M⁻¹ s⁻¹
B1: fully human anti-VEGF antibody 11A7 (antibody, human IgG1, kappa, V domains shown)
VH: QVQLVQSGAEVKKPGASVKVSCKASGYTFTSYDINWVRQATGQGLEWMGWMNPNSGNTGYAQKFQGRVTMTRNTSISTAYMELSSLRSEDTAVYYCARGGYSSSWYYWYFDLWGRGTLVTVSS
VL: DIQMTQSPSSLSASVGDRVTITCRASQGIRNDLGWYQQKPGKAPKRLIYAASSLQSGVPSRFSGSGSGTEFTLTISSLQPEDFATYYCLQHNSYPPVYTFGQGTKLEIKR
notes: The genes carried a signal peptide at the 5' end; also called fully human antibody 11A7
